B1: kiwifruit GDP-L-Galactose Guanyltransferase EST 319998 (Actinidia chinensis var. chinensis) (protein)
chain: MLKIKRVPTVVSNFQKDEAEDGARSGGGCGRNCLQKCCIQGAKLPLYAFKRVKEVVGEKGLLAVDDEEAPVAFLDSLLLGEWEDRVQRGLFRYDVTACETKVIPGEYGFIAQLNEGRHLKKRPTEFRVDKVLQPFDESKFNFTKVGQEEVLFQFEASDDNEVQFFPNAPVDVENSPSVVAINVSPIEYGHVLLIPRILECLPQRIDRESFLLALHMAAEAGNPYFRLGYNSLGAFATINHLHFQAYYLAVPFPIEKAPTRKITTLNGGVKISDLLNYPVRGLVFEGGNSLEDLSNAVSDSSICLQGNNIPYNVLISDSGKCIFLLPQCYAEKQALGEVSSDLLDTQVNPAVWEISGHMVLKRKEDYEEASEGNAWRLLAEVSLSEERFEEVKALIFEAISCADDRSGSTAENLLEEPDDNPQSRKVANDALNKGSHRGMVPGKQECLVQH

Columns and labels:
[1] = biological target: T1, kiwifruit GDP-L-Galactose Guanyltransferase EST 319998 (Actinidia chinensis, UniProt A0A2R6QD99); assay: Fixed time transferase assay, aliquots measured using coupling enzymes; assay type: biochemical; conditions: acceptor Mannose-1-P; 0.057 ug protein
Procedure: The assay for GDP-L-Galactose-1-Phosphate Guanyltransferase was run in 20 mM TrisCl, pH 8.0, GDP-L-Galactose, with 1 mM D-Mannose-1-Phosphate. GDP-L-Galactose was either used directly from the Glycoteam product (in which case high backgrounds were observed due to contaminating L-Galactose-1-Phosphate) or GDP-L-Galactose was generated using the epimerase. In the latter case, 0.21 mg of epimerase was incubated with GDP-D-Mannose in 20 mM Tris Cl pH 8 in a total volume of 400 μL (see Wolucka et al., 2001) for 30 minutes at 20 C and then used directly in the assay at a 1 to 20 dilution. Assays were either terminated after 10 minutes by heating to 100 C for three minutes, or directly coupled to the phosphatase and L-Galactose dehydrogenase to measure product formation during the assay. […] Assays for L-Galactose were linear with added L-Galactose-1-Phosphate over the range measured. […]
(§1) The applicants used two assays to characterise the enzyme, using two sources of the substrate GDP-L-Galactose. […] The applicants either measured the product formed by adding the coupling enzymes in the assay and measuring the time course of NADH formed, or by stopping the reaction after 10 minutes by boiling for 3 minutes and centrifuging. […]

[2] = assay type: physicochemical
Description: GDP-L-Galactose (˜50% pure, contaminated with the breakdown products GDP and L-Galactose-1-Phosphate as shown by HPLC and LCMS) and L-Galactose-1-Phosphate were purchased from Glycoteam, Hamburg, Germany. […] Other biochemicals were purchased from Sigma.

[3] = biological target: T1, kiwifruit GDP-L-Galactose Guanyltransferase EST 319998; assay: Fixed time transferase assay, aliquots measured by LCMS; assay type: biochemical; conditions: acceptor Mannose-1-P; 0.057 ug protein
Procedure: (§2) The assay for GDP-L-Galactose-1-Phosphate Guanyltransferase was run in 20 mM TrisCl, pH 8.0, GDP-L-Galactose, with 1 mM D-Mannose-1-Phosphate. GDP-L-Galactose was either used directly from the Glycoteam product (in which case high backgrounds were observed due to contaminating L-Galactose-1-Phosphate) or GDP-L-Galactose was generated using the epimerase. In the latter case, 0.21 mg of epimerase was incubated with GDP-D-Mannose in 20 mM Tris Cl pH 8 in a total volume of 400 μL (see Wolucka et al., 2001) for 30 minutes at 20 C and then used directly in the assay at a 1 to 20 dilution. Assays were either terminated after 10 minutes by heating to 100 C for three minutes, or directly coupled to the phosphatase and L-Galactose dehydrogenase to measure product formation during the assay. Heat terminated assays were cooled on ice, centrifuged to remove precipitated protein and L-Galactose assayed using the coupling enzymes described above (see also (Laing et al., 2004)). Assays for L-Galactose were linear with added L-Galactose-1-Phosphate over the range measured. Backgrounds were run using the empty vector control, which gave the same result as a boiled enzyme control.
As an alternative assay, LCMS was used to identify the forward reaction described above as well measure as the reverse pyrophosphorylase reaction where GTP (1 mM) and L-Galactose-1-Phosphate were incubated as above and the formation of GDP-L-Galactose followed. GDP-D-Mannose and GDP-L-Galactose were separated by HPLC before MS. LC-MS employed an LTQ linear ion trap mass spectrometer fitted with an ESI interface (ThermoQuest, Finnigan, San Jose, Calif., USA) coupled to an EttanTM MDLC (GE Healthcare Bio-Sciences). Separation of GDP-D-Mannose and GDP-L-Galactose was achieved using a Hypercarb column (Thermo Electron, USA), 100×2.1 mm maintained at 40 C. Solvents were (A) 50 mM ammonium acetate and (B) acetonitrile and the flow rate was 200 uL/min. The initial mobile phase, 5% B was held for 3 min, then ramped linearly to 20% B at 11 min, held for 5 min, then ramped linearly to 70% B at 19 min and held for 5 min before resetting to the original conditions. Retention times for GDP-D-Mannose and GDP-L-Galactose were 16.8 min and 17.5 min, respectively.
MS data was acquired in the negative mode using both a selective reaction monitoring (SRM) method SRM m/z 604>m/z 344, 362, 424, 442 and a selected ion monitoring (SIM) method SIM m/z 604. This SIM method monitors only the (M-H)— ion for GDP-D-Mannose and GDP-L-Galactose while the SRM method monitors the distinctive daughter ions formed by fragmenting the precursor ion (M-H)— for both compounds. Both methods maximise sensitivity by screening out any chemical noise from other compounds present. The ESI voltage, capillary temperature, sheath gas pressure, sweep gas and auxiliary gas were set at −10 V, 350° C., 25 psi, 3 psi, and 3 psi, respectively. Separation of D-Mannose-1-Phosphate and L-Galactose-1-Phosphate was achieved isocratically using a Hypercarb column (Thermo Electron, USA), 100×2.1 mm maintained at 40° C. Solvents were (A) 20 mM ammonium acetate and (B) methanol and the flow rate was 200 uL/min. Using a mobile phase of 2% B the retention times for D-Mannose-1-Phosphate and L-Galactose-1-Phosphate were 4.3 min and 4.9 min, respectively. MS data was acquired in the negative mode using both a selective reaction monitoring (SRM) method SRM m/z 259>m/z 79, 97 and a selected ion monitoring (SIM) method SIM m/z 259. […]

[4] = substrate: O=P(O)(O)O[C@H]1O[C@H](CO)[C@@H](O)[C@H](O)[C@@H]1O; assay: purified protein, by the assay type; conditions: other: varying concentrations of the guanyl acceptor; continuous coupled assay; FIG. 3; pH 8.0; 20.0 °C
Arabidopsis plants = assay: Leaf ascorbate in stably transformed Arabidopsis plants; assay type: in vivo, Arabidopsis thaliana; conditions: third generation, kanamycin resistant plants; FIGS. 20A-20B
Procedure: In the second generation, up to 12 plants from each line, selected from the kanamycin plates, were grown to a standard size of a complete rosette of leaves in the glasshouse and ascorbate measured (FIG. 19). […] The increased ascorbate ranged up to over 4 times the normal level of ascorbate in Arabidopsis leaves.
Selected plants from the second generation were taken on to the next generation. […] Again the applicants observed plants with leaf ascorbate over 4 times the control level (FIGS. 20A-20B), but again within a line with high ascorbate progeny, there were always plants with high and low ascorbate in spite of all plants coming from a high ascorbate kanamycin resistant parent. […] Regions of complete sequence identity are found, when the 319998 and Arabidopsis sequence is aligned (data not shown). This could account for the apparent silencing seen.

[5] = tested on: Tobacco (Nicotiana benthamiana) leaves; assay: Transferase activity in extracts of transiently transformed tobacco leaves; assay type: in vivo; conditions: transient expression in pGreen mixed with P19
Procedure: The transferase activity in tobacco leaves was measured by extracting liquid nitrogen ground leaves in approximately five volumes of TrisCI pH 8.0, 2 mM DTT and 1 mM EDTA, centrifuging, desalting the supernatant using a NAP desalting column equilibrated with the same buffer and assaying the enzyme using the coupled assay described above. Protein in the extracts was measured using the Biorad Bradford Coumassie assay (Bradford, 1976) using BSA as a standard.
(§3) Tobacco (Nicotiana benthamiana) was transiently transformed with Agrobacterium containing the kiwifruit gene for GDP-L-Galactose Guanyltransferase (EST 319998) cloned in pGreen (Hellens et al., 2000) mixed with Agrobacterium containing the gene for the silencing suppressor P19 as previously described (Hellens et al., 2005). Controls were run using Agrobacterium containing P19 in pGreen alone. Tobacco leaves were harvested 9 days after transformation and frozen in liquid nitrogen.

[6] = Transferase activity of E. coli expressed enzymes (coupled reaction and LCMS); assay type: biochemical; conditions: enzyme expressed in E. coli, His tag purified
Procedure: Expression of genes in E. coli. The EST 319998 from young fruit of Actinidia chinensis and At4g26850 were each cloned into pET30A (Novagene, USA), their sequence checked and expressed in E. coli. The N terminal His6 tag was used to purify the protein. An empty vector control was expressed and purified in parallel. Techniques were essentially as described earlier (Laing et al., 2004). In much of this work the His-protein was further purified on a 5 mL HiTrap Q FF column (GE Healthcare), and identical results were obtained with both preparations.
as §2, with “control. […]” for “control.”
as §1

[7] = tested on: Tobacco (Nicotiana benthamiana) leaves; assay: Leaf ascorbate after transient transformation of tobacco leaves; assay type: in vivo
Description: as §3
Ascorbate was extracted as described previously in metaphosphoric acid without reducing agent (Davey et al., 2003; Rassam and Laing, 2005). […]

[8] = tested on: Nicotiana tabacum ‘Samsun’; assay: Leaf ascorbate in stably transformed tobacco; assay type: in vivo; conditions: two kanamycin resistant lines; FIG. 22
Procedure: Tobacco was transformed with 319998 and Kanamycin resistant lines selected. These plants were transferred to soil and grown until several leaves were expanded. Ascorbate and gene expression was measured in these leaves (FIG. 22).
Nicotiana tabacum ‘Samsun’ was transformed using Agrobacterium tumefaciens strain GV101 carrying the pHex vector containing EST 319998. Methods used were as described by Guerineau et al (1990), except kanamycin was used instead of sulphonamide selective agents at the rate of 100 mg.L-1.

Molecule	transferase activity, Coupled assay [1] [nmoles/sec/ug protein]	acid stability [2]	transferase activity, LCMS [3]	Km [4] [µM]	leaf ascorbate relative to the control level (Arabidopsis plants)	GDP-L-Galactose Guanyltransferase activity in leaf extract [5]	GDP-L-Galactose Guanyltransferase activity of the expressed enzyme [6]	effect on leaf ascorbate ([7]; His tag in front of the transferase sequence in pGreen, FIGS. 17A-17B)	function of construct in raising leaf ascorbate ([7]; transferase cloned into pGreenII 0229 62-SK (bialaphos resistance), FIGS. 17A-17B)	effect on leaf ascorbate ([7]; transient expression with P19)	increase in leaf ascorbate compared to control leaves ([7]; transient expression with P19, listed as 319998)	effect on leaf ascorbate ([7]; transient expression with P19, listed as 319998_Ac)	increase in leaf ascorbate compared to control leaves ([7]; transient expression with P19, listed as transferase) [fold]	Leaf ascorbate levels, average ([7]; transient expression with P19, mean of three plants, three leaves per plant, harvested 9 days after transformation)	Relative amount of ascorbate ([7]; transient expression with P19, relative to controls)	increase in leaf ascorbate [8] [%]
Nc1nc2c(ncn2[C@@H]2O[C@H](COP(=O)(O)OP(=O)(O)OC3O[C@@H](CO)[C@@H](O)[C@@H](O)[C@@H]3O)[C@@H](O)[C@H]2O)c(=O)[nH]1 (stereo partly drawn) [GDP-L-Galactose]	0.017	extremely acid labile	high BG													
B1				110 ± 30	over 4 times	measurable activity could be measured in the extract of the leaves	could catalyse the conversion of GDP-L-Galactose to L-Galactose-1-P	active in increasing leaf ascorbate	fully functional	usually was the most effective gene	three fold increase in ascorbate	increased ascorbate levels in the leaf	~3	102.0	3.0	60

— US9157088B2, “Transferases, epimerases, polynucleotides encoding these and uses thereof” (priority 2007, dated 2015)
